Measurements from US20230106715A1 (BIOSION, published 2023).
Like-named read-outs stand apart in the source and are kept apart here.

T1: human Siglec15 on human-siglec15-2D3-1E1 cells (human, UniProt Q6ZMC9 20-328)
T1 construct: whole, on cells; Transfected HEK-293 cells; also called cell surface human Siglec15
T1 sequence (looked up): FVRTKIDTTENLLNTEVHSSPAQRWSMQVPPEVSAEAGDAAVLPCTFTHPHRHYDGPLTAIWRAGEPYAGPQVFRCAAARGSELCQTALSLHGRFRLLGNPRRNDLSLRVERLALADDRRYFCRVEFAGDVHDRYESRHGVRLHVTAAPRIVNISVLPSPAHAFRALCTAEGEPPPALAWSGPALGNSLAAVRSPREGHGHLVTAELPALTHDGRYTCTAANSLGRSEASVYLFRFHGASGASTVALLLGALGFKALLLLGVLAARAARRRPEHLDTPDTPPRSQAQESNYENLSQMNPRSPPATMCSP

T2: cynomolgus monkey Siglec15-his protein (cynomolgus monkey)
T2 construct: In house made; also called Cynomolgus Siglec15-his; cynomolgus Siglec15
T2 chain: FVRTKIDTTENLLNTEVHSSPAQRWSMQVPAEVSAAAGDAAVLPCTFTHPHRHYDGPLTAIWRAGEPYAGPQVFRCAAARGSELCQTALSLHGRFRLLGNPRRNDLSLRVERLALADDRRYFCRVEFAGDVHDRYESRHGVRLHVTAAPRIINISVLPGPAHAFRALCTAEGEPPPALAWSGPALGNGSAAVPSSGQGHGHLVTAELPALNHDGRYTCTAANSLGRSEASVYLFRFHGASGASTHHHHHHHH


Assays:
[1] = target: T1, human Siglec15 on …; assay: cell based binding FACS on human-siglec15-2D3-1E1 cells
Experimental: (§1) The binding activities of the anti-Siglec15 antibodies to cell surface Siglec15 were tested by flow cytometry (FACS), using in-house prepared human-siglec15-2D3-1E1 cells expressing human Siglec15 (amino acid residues Met1-Pro328 of uniprot #Q6ZMC9) on cell membranes. The human-siglec15-2D3-1E1 cells were prepared by transfecting HEK-293 cells (ATCC #CRL-1573) with pCMV-T-P plasmids inserted with human Siglec15 coding sequence between EcoRI and XbaI sites, following the instruction of lipofectamine 3000 transfection reagent (Thermo Fisher). The human-siglec15-2D3-1E1 cells were harvested from cell culture flasks, washed twice and re-suspended in phosphate buffered saline (PBS) containing 2% v/v Fetal Bovine Serum (FACS buffer). 2×10⁵ cells per well in 96 well-plates were incubated in 100 μL serially diluted anti-Siglec15 antibodies or controls (starting at 66.67 nM, 5-fold serial dilution) in FACS buffer for 40 minutes on ice. […] Following a 40-minute incubation at 4° C. in dark, cells were washed three times and re-suspended in FACS buffer. Fluorescence was measured using a Becton Dickinson FACS Canto II-HTS equipment. Data was analyzed using Graphpad Prism software and EC₅₀ values were reported.

[2] = target: T2, cynomolgus monkey Siglec15-his protein; assay: indirect ELISA on coated cynomolgus Siglec15-his
Experimental: The anti-Siglec15 antibodies' cross-reactions to cynomolgus or mouse Siglec15 proteins were measured. Briefly, 96-well micro plates were coated with 100 μl of 2 μg/ml cynomolgus Siglec15-his protein (in house made with SEQ ID NO: 21), or 2 μg/ml mouse Siglec15-his protein (in house made with SEQ ID NO: 22) in carbonate/bicarbonate buffer (pH 9.6) for 2 hours at 37° C. ELISA plates were washed once with wash buffer (PBS+0.05% v/v Tween-20, PBST) and then blocked with 200 μl/well blocking buffer (5% w/v non-fatty milk in PBST) overnight at 4° C. Plates were washed 4 times and incubated with 100 μl serially diluted anti-Siglec15 antibodies of the disclosure or controls (starting at 66.7 nM, 5-fold serial dilution in PBST with 2.5% w/v non-fatty milk) for 40 minutes at 37° C. ELISA plates were washed 4 times again and incubated with Peroxidase AffiniPure Goat Anti-Human IgG, F(ab)₂ fragment specific (1:5000 dilution in PBST buffer, Jackson Immunoresearch, Cat #109-035-097, 100 μl/well) for 40 minutes at 37° C. After a final wash, plates were incubated with 100 μl/well TMB (Innoreagents, Cat #TMB-S-002). The reaction was stopped 4 minutes later at room temperature with 50 μl 1M H₂SO₄, and the absorbance of each well was read on a microplate reader using dual wavelength mode with 450 nm for TMB and 630 nm as the reference wavelength, then the OD (450-630) values were plotted against antibody concentration. Data was analyzed using Graphpad Prism software and EC₅₀ values were reported.

[3] = target: T3, human Siglec15-Fc protein (human); assay: competitive ELISA: coated human Siglec15-Fc, blocked ligand biotin-labeled human LRRC4C-Fc
T3 construct: In house made; also called recombinant human Siglec15 protein with human IgG1 Fc at the C-terminus
T3 sequence (chain, as listed by the source limits assumed): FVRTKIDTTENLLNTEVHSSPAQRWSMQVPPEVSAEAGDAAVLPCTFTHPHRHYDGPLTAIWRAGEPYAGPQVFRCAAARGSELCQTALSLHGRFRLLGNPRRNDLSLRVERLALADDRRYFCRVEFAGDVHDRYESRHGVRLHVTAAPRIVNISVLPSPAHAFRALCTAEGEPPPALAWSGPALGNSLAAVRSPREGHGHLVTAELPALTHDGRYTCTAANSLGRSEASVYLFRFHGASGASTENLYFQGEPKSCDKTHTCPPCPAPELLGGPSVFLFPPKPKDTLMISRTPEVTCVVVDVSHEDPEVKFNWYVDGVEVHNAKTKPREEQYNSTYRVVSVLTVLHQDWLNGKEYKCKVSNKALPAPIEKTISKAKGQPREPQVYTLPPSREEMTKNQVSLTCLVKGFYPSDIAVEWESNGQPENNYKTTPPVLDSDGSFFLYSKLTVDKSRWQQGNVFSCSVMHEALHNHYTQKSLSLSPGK
Experimental: Serially diluted anti-Siglec15 antibodies or the controls (starting at 66.67 nM with a 5-fold serial dilution) in PBST with 2.5% w/v non-fatty milk were added to the Siglec15-Fc bound plates, 100 μl per well, and incubated with the human Siglec15-Fc protein at 37° C. for 40 minutes. Plates were washed 4 times again using wash buffer, then added and incubated for 40 minutes at 37° C. with 100 μl/well 290 ng/ml biotin-labeled human LRRC4C-Fc protein (prepared in-house with SEQ ID NO: 23). Plates were washed again using wash buffer. Thereafter, the plates were added with 100 μl/well streptavidin conjugated HRP (1:5000 dilution in PBST buffer, Jackson Immunoresearch, Cat #016-030-084) and incubated for 40 minutes at 37° C. Plates were washed again using wash buffer. Finally, TMB was added and the reaction was stopped using 1M H₂SO₄, and the absorbance of each well was read on a microplate reader using dual wavelength mode with 450 nm for TMB and 630 nm as the reference wavelength, then the OD (450-630) values were plotted against antibody concentration. Data was analyzed using Graphpad Prism software and IC₅₀ values were reported.
The mouse anti-Siglec15 antibodies of the disclosure were also tested in ligand blocking ELISA and benchmark blocking ELISA following the protocols described above.

[4] = target: T1, human Siglec15 on …; assay: cell based binding FACS on human-siglec15-2D3-1E1 cells; remark: listed apart in the source
Experimental: as §1

Binder	EC50 [1] [nM]	EC50 [2] [nM]	IC50 [3] [nM]	EC50 [4] [nM]
A1E10G7H9 (antibody, V domains shown, Fully human antibody from transgenic mouse hybridoma) VH: QVQLQESGPGLVKPSGTLSLTCAVSGGSISSSNWWHWVRQPPGKGLEWIGEIYHSGNTNYKPSLKSRVTISVDKSKNQFSLKLSSVTAADTAVYYCARDEGNGWSNAFDIWGQGTMVTVSS VL: ENVLTQSPGTLSLSPGERVTLSCRASQSVSSSYLAWYQQKPGQAPRFLIYGASGGATGIPDRFSGSGSGTDFTLTISRLEPEDFAVYYCQQYGSSPITFGQGTRLEIK	0.182	0.509		
B2D7H7A3C1 (antibody, V domains shown, Mouse monoclonal antibody from hybridoma; also called mouse B2D7H7A3C1) VH: QVQLQQSGAELVRPGTSVQMSCKAAGYTFTNYWIGWVKQRPGHGLEWVGDIHPGINYTNNNEKFRGKATLTADTSSNTAYMQLRGLTSDDSAIYYCARVDYDYDGSYIMDYWGQGTSVTVSS VL: QIVLSQSPALLSASPGEKVTMTCRASSSVSYMYWYQQKPGSSPKPWIYATSNLTSGVPARFSGSGSGTSYSLTISRVEAEDAATYFCQQWNSKPWTFGGGSKLEIR			0.868	
A2A5C7E8 (antibody, V domains shown, Fully human antibody from transgenic mouse hybridoma; also called A2A5C7E8-1) VH: EVQLVQSGAEVKKPGESLRISCKGSGYSFTTYWISWVRQMPGKGLEWMGLIDPSDSYTNYSPSFQGHVTISTDKSISTAYLQWSSLKASDTAMYYCARGGYYGSEEDYWGQGTLVTVSS VL: EIVLTQSPGTLSLSPGERATLSCRASQSVSSSRLAWFQQKSGQAPRLLIFDASSRATGIPDRFSGSGSGTDFTLTISRLEPEDFAVYYCQQYGSSPRTFGQGTKVEFK	24.1	0.521		1.17
A2A5C7E8-2 (antibody, human IgG1, kappa, V domains shown, Variant of A2A5C7E8 modified in VH CDR2 (X1 = E)) VH: EVQLVQSGAEVKKPGESLRISCKGSGYSFTTYWISWVRQMPGKGLEWMGLIDPSESYTNYSPSFQGHVTISTDKSISTAYLQWSSLKASDTAMYYCARGGYYGSEEDYWGQGTLVTVSS VL: EIVLTQSPGTLSLSPGERATLSCRASQSVSSSRLAWFQQKSGQAPRLLIFDASSRATGIPDRFSGSGSGTDFTLTISRLEPEDFAVYYCQQYGSSPRTFGQGTKVEFKR				1.47

More lines, now with the values ahead:

EC50 [1] [nM]	EC50 [2] [nM]	IC50 [3] [nM]	EC50 [4] [nM]	Binder
		1.04		B2H2H1H7 (antibody, V domains shown, Mouse monoclonal antibody from hybridoma; also called mouse B2H2H1H7; B2H2H1A7) VH: QVQLQQSGAELVRPGTSVQMSCKAAGYTFTNYWIGWVKQRPGHGLEWVGDIHPGINYTNNNEKFRGKATLTADTSSSTAYMQLRGLTSDDSAIYYCARVDYDYDGSYIMDYWGQGTSVTVSS VL: QIILSQSPALLSASPGEKVTMTCRASSSVSYMYWYQQKPGSSPKPWIYATSNLTSGVPARFSGSGSGTSYSLTISRVEAEDAATYFCQQWNSKPWTFGGGSRLEIR
		0.954		B2G12H3E8 (antibody, V domains shown, Mouse monoclonal antibody from hybridoma; also called mouse B2G12H3E8) VH: QVQLKQSGAELVRPGTSVQMSCKAVGYTFTNYWIGWVKQRPGHGLEWVGDIHPGINYTNNNEKFRGKATLTADTSSSTAYMQLRGLTSDDSAIYYCARVDYDYDGSYIMDYWGQGTSVTVSS VL: QIVLSQSPALLSASPGEKVTMTCRASSSVSYMYWYQQKPGSSPKPWIYATSNLTSGVPARFSGSGSGTSYSLTISRVEAEDAATYFCQQWNSKPWTFGGGSKLEIR
11.3	0.652	1.57	0.877	anti-Siglec15 benchmark (ch5G12) (antibody, human IgG1, kappa, V domains shown, ch5G12 (US 20190202912A1); also called BM; Siglec15-ch5G9) VH: QVQLQQPGAELVKPGASVKMSCKASGYTFTSYWITWVIQRPGQGLEWIGDIYCGSDTMHYNEKFKNKATLTVDTSSSTAYMQLSSLTSEDSAVYYCARWWDYGSSYDYFDYWGQGTTLTVSS VL: DIKMTQSPSSMYASLGERVTITCKASQDINSYLSWFQQKPGKSPKTLIYRANRLVDGVPSRFSGSGSGQDYSLTISSLEYEDMGIYYCLQYDEFPYTFGGGTKLEIKR
			1.08	A2A5C7E8-3 (antibody, human IgG1, kappa, V domains shown, Variant of A2A5C7E8 modified in VH CDR2 (X2 = K)) VH: EVQLVQSGAEVKKPGESLRISCKGSGYSFTTYWISWVRQMPGKGLEWMGLIDPSDSYTNYSPSFKGHVTISTDKSISTAYLQWSSLKASDTAMYYCARGGYYGSEEDYWGQGTLVTVSS VL: EIVLTQSPGTLSLSPGERATLSCRASQSVSSSRLAWFQQKSGQAPRLLIFDASSRATGIPDRFSGSGSGTDFTLTISRLEPEDFAVYYCQQYGSSPRTFGQGTKVEFKR
